Substrate: O=C(O)[C@@H](COP(=O)(O)O)O[C@H]1O[C@H](CO)[C@@H](O)[C@H](O)[C@H]1O
Test: purified protein
Conditions: pH 7.5; 37.0 °C

B1: mGpgP (Rv2419c), recombinant GpgP from M. tuberculosis (Mycobacterium tuberculosis H37Rv) (protein)
chain: MRARRLVMLRHGQTDYNVGSRMQGQLDTELSELGRTQAVAAAEVLGKRQPLLIVSSDLRRAYDTAVKLGERTGLVVRVDTRLRETHLGDWQGLTHAQIDADAPGARLAWREDATWAPHGGESRVDVAARSRPLVAELVASEPEWGGADEPDRPVVLVAHGGLIAALSAALLKLPVANWPALGGMGNASWTQLSGHWAPGSDFESIRWRLDVWNASAQVSSDVL
Work on B1 yielded a Km of 350 ± 30 µM.
